Test results as given in patent US7211241B2, “Cascade polymer complexes, process for their production and pharmaceutical agents containing said complexes” (Schering Aktiengesellschaft, priority 1995, dated 2007).

What was measured:
[1] = MR angiography on rabbits; type: in vivo; settings: i.v. 50 μmol of Gd/kg of body weight, 1.5 tesla
Protocol: The compound cited under Example 1k was studied on rabbits (CH. R. Kisslegg, ≈4 kg of body weight) in an MR angiography experiment (Ganzkörper [whole-Body] MRT System Siemens Vision, 1.5 tesla, FISP 3D; TR: 400 ms; TE 15 ms; flip angle: 45°; coronal).
In a precontrast picture only one to two major vessels are visible (e.g., abdominal aorta) in relatively poor contrast (signal intensity SI of these vessels against the background).

[2] = In vivo comparison with an extracellular contrast medium: blood concentrations of Gd and Dy in rats with ligated renal vessels; settings: i.v.; for diffusion in the interstitium: compound 1 and compound 2 compared in the same animals; for time until equilibrium is reached (constant blood level): examination period 15 minutes
From the text: FIG. 1 is a graph of the measured blood concentrations of Gd (compound 1) and Dy (compound 2) in rats (n=5) with ligated renal vessels, as described in the above Example for an In Vivo Comparison with an Extracellular Contrast Medium.
The suitability of the compound described in Example 1k) as blood-pool-agent is shown in the following test.
As test animals, five male (Schering-SPF) rats that are 300–350 g in weight are used. Before the test, the abdomen is opened, the intestines are shifted and then the renal vessels (arterial+venous) of both sides are ligated through the rear peritoneum with a surgical needle. Then, the abdominal cavity is closed again. 0.3 ml (respectively 50 mmol/L) of the following contrast medium solution per animal is then administered intravenously: mixture of 1 part each of the compound of Example 1k), named compound 1 below, and the dysprosium complex of 10-(1-hydroxymethyl-2,3-dihydroxypropyl)-1,4,7-tris(carboxymethyl)-1,4,7,10-tetraazacyclododecane, produced analogously to the instructions in European Patent Application EP 448 191, named compound 2 below. Blood samples are taken with a catheter in the common carotid artery at the following times: 15, 30, 45, 60, 90 seconds, 3, 5, 10, 15 minutes p.i. In the blood samples obtained, the concentrations of gadolinium (Gd) and dysprosium (Dy) are measured with the aid of atomic emission spectrometry (ICP-AES) in each case in a parallel manner. The portion of the injected contrast medium of compound 1 (Gd) and compound 2 (Dy., comparison substance), remaining in the blood space, can be compared in the same animals by the different marking. Since a renal excretion is not possible, the decrease of the blood concentration can be attributed only to a distribution in the blood spaces and to the diffusion in the interstitial tissue.

[3] = rats; cited from earlier work

Molecule	blood vessels visible after administration of contrast medium [1]	contrast (SI of the vessels/SI of the background) ([1]; versus precontrast picture)	behaviour as blood-pool contrast medium [2]	diffusion in the interstitium [2]	blood concentrations ([2]; compound 1 versus compound 2, up to 15 minutes p.i.)	time until equilibrium is reached (constant blood level) [2]	excretion route [3]
24-mer-Gd-complex of N-(5-DO3A-yl-4-oxo-3-azahexanoyl)-cascade polyamide based on N,N,N′,N′,N″,N″-hexakis[2-(trilysylamino)-ethyl]-trimesic acid triamide [Example 1k]	a wide variety of minor blood vessels and capillaries	marked increase	behaves as a blood-pool contrast medium	considerably slowed-down	constantly higher	no equilibrium is reached	
O=C([O-])CN1CCN(CC(=O)[O-])CCN(C(CO)C(O)CO)CCN(CC(=O)[O-])CC1.[Dy+3] (stereo not drawn) [compound 2, dysprosium complex of 10-(1-hydroxymethyl-2,3-dihydroxypropyl)-1,4,7-tris(carboxymethyl)-1,4,7,10-tetraazacyclododecane, reference compound]				diffuses quickly into the interstitial spaces of the body		3–5 minutes p.i.	
polylysine-GdDTPA							excreted unchanged by glomerular filtration through the kidneys
